Measured values from the supplement of paper PMC9112550, “Optimization of the antimicrobial peptide Bac7 by deep mutational scanning” (BMC Biology, 2022).

test system: Escherichia coli TOP10; experiment: shrunken log2 fold change of peptide-encoding DNA abundance (4.5 h post-induction vs induction); higher = less antimicrobial activity (less host growth inhibition); settings: time post-induction: 4.5 h; library: site-saturation at positions 5, 18, 19, 20
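Further: peptides expressed intracellularly from a pBAD plasmid library in pooled LB shake-flask culture, induced with 0.3% L-arabinose, DNA abundance read by NGS, three biological replicates, DESeq2 with apeglm shrinkage.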

Row | Sequence | shrunken log2 fold change
1 | RRIRQRPPRLPRPRPRPHHVPRP | -0.0277
2 | RRIRGRPPRLPRPRPRPYPAPRP | 0.497
3 | RRIRMRPPRLPRPRPRPPWGPRP | 0.686
4 | RRIRRRPPRLPRPRPRPVNNPRP | -0.12
5 | RRIRWRPPRLPRPRPRPSIRPRP | -0.613
6 | RRIRDRPPRLPRPRPRPIEPPRP | -0.0685
7 | RRIRPRPPRLPRPRPRPMMRPRP | 0.224
8 | RRIRYRPPRLPRPRPRPSPDPRP | -0.0956
9 | RRIRVRPPRLPRPRPRPKVFPRP | -0.0519
10 | RRIRGRPPRLPRPRPRPWAAPRP | 0.539
11 | RRIRFRPPRLPRPRPRPADYPRP | -0.207
12 | RRIRCRPPRLPRPRPRPARCPRP | 0.477
13 | RRIRARPPRLPRPRPRPNTGPRP | -0.0394
14 | RRIRTRPPRLPRPRPRPQLLPRP | 0.0259
15 | RRIRLRPPRLPRPRPRPFAPPRP | 0.263
16 | RRIRPRPPRLPRPRPRPMHVPRP | 0.038
17 | RRIRYRPPRLPRPRPRPKHWPRP | 0.266
18 | RRIRGRPPRLPRPRPRPEINPRP | 0.797
19 | RRIRSRPPRLPRPRPRPRKEPRP | 0.131
20 | RRIRQRPPRLPRPRPRPWVHPRP | -0.0494
21 | RRIRPRPPRLPRPRPRPAHTPRP | -0.0311
22 | RRIRLRPPRLPRPRPRPGMRPRP | 0.787
23 | RRIRNRPPRLPRPRPRPIAKPRP | -0.000903

Row | Sequence | shrunken log2 fold change
24 | RRIRARPPRLPRPRPRPVKFPRP | -0.0699
25 | RRIRYRPPRLPRPRPRPHCKPRP | -0.11
26 | RRIRDRPPRLPRPRPRPAVEPRP | 0.845
27 | RRIRLRPPRLPRPRPRPAVCPRP | 0.0348
28 | RRIRERPPRLPRPRPRPARQPRP | 0.0428
29 | RRIRTRPPRLPRPRPRPITHPRP | -0.0526
30 | RRIRVRPPRLPRPRPRPFACPRP | -0.395
31 | RRIRIRPPRLPRPRPRPVIAPRP | -0.388
32 | RRIRLRPPRLPRPRPRPLMRPRP | 0.807
33 | RRIRCRPPRLPRPRPRPSSQPRP | -0.377
34 | RRIRIRPPRLPRPRPRPDMGPRP | -0.0742
35 | RRIRKRPPRLPRPRPRPGIKPRP | 0.34
36 | RRIRIRPPRLPRPRPRPIDIPRP | -0.0353
37 | RRIRWRPPRLPRPRPRPHLMPRP | -0.0519
38 | RRIRERPPRLPRPRPRPISTPRP | -0.346
39 | RRIRDRPPRLPRPRPRPMRMPRP | 0.199
40 | RRIRWRPPRLPRPRPRPHYSPRP | -0.279
41 | RRIRNRPPRLPRPRPRPRMLPRP | 0.132
42 | RRIRRRPPRLPRPRPRPCDKPRP | -0.00163
43 | RRIRPRPPRLPRPRPRPTCSPRP | 0.265
44 | RRIRDRPPRLPRPRPRPPNKPRP | 0.0523
45 | RRIRFRPPRLPRPRPRPIKSPRP | -0.271
46 | RRIRIRPPRLPRPRPRPPVVPRP | 0.0726

Row | Sequence | shrunken log2 fold change
47 | RRIRDRPPRLPRPRPRPEIDPRP | 0.0535
48 | RRIRKRPPRLPRPRPRPEVNPRP | 3.37
49 | RRIRKRPPRLPRPRPRPWPAPRP | 0.376
50 | RRIRGRPPRLPRPRPRPPLPPRP | 1.01
51 | RRIRSRPPRLPRPRPRPWFRPRP | 0.212
52 | RRIRPRPPRLPRPRPRPESQPRP | -0.0975
53 | RRIRWRPPRLPRPRPRPMYGPRP | -0.0856
54 | RRIRWRPPRLPRPRPRPFTSPRP | -0.0735
55 | RRIRGRPPRLPRPRPRPPYHPRP | 0.0679
56 | RRIRHRPPRLPRPRPRPIYNPRP | -0.898
57 | RRIRWRPPRLPRPRPRPKGSPRP | 0.0359
58 | RRIRERPPRLPRPRPRPRWPPRP | 0.486
59 | RRIRWRPPRLPRPRPRPEDCPRP | -0.00079
60 | RRIRCRPPRLPRPRPRPLFIPRP | -0.51
61 | RRIRCRPPRLPRPRPRPMVQPRP | -0.292
62 | RRIRDRPPRLPRPRPRPFEKPRP | 0.00649
63 | RRIRTRPPRLPRPRPRPWHMPRP | 0.0039
64 | RRIRCRPPRLPRPRPRPNLTPRP | -0.162
65 | RRIRYRPPRLPRPRPRPNGWPRP | -0.0316
66 | RRIRNRPPRLPRPRPRPQSEPRP | -0.0564
67 | RRIRDRPPRLPRPRPRPVVVPRP | 0.328
68 | RRIRTRPPRLPRPRPRPWLQPRP | -0.187
69 | RRIRARPPRLPRPRPRPSEQPRP | 0.248

Row | Sequence | shrunken log2 fold change
70 | RRIRSRPPRLPRPRPRPVLQPRP | 0.371
71 | RRIRTRPPRLPRPRPRPSRMPRP | -0.0328
72 | RRIRHRPPRLPRPRPRPALHPRP | 0.111
73 | RRIRARPPRLPRPRPRPHTNPRP | -0.227
74 | RRIRPRPPRLPRPRPRPDSQPRP | -0.127
75 | RRIRARPPRLPRPRPRPMPCPRP | 0.535
76 | RRIRARPPRLPRPRPRPPYCPRP | 0.276
77 | RRIRHRPPRLPRPRPRPSIEPRP | -0.37
78 | RRIRYRPPRLPRPRPRPENRPRP | 0.0112
79 | RRIRYRPPRLPRPRPRPYWKPRP | -0.0135
80 | RRIRNRPPRLPRPRPRPTDGPRP | -0.113
81 | RRIRDRPPRLPRPRPRPIVTPRP | 0.171
82 | RRIRARPPRLPRPRPRPERGPRP | 0.305
83 | RRIRCRPPRLPRPRPRPHMEPRP | -0.194
84 | RRIRVRPPRLPRPRPRPCWYPRP | -0.544
85 | RRIRKRPPRLPRPRPRPFDYPRP | -0.121
86 | RRIRPRPPRLPRPRPRPRMMPRP | 0.323
87 | RRIRHRPPRLPRPRPRPPLEPRP | 0.223
88 | RRIRIRPPRLPRPRPRPPVFPRP | 0.0815
89 | RRIRIRPPRLPRPRPRPDIWPRP | -0.324
90 | RRIRRRPPRLPRPRPRPCQHPRP | -0.153
91 | RRIRSRPPRLPRPRPRPLACPRP | 0.268
